Source: article doi:10.64898/2025.12.16.693247 (2025)

Tests used:
[1] = target: RIPR EGF 9+ (L898 - N1086) (P. falciparum, UniProt O97302 898-1086, N964Q | N1021Q); assay: SPR
[2] = target: T1, RIPR-Tail (D717 - N1086) (P. falciparum, UniProt O97302 717-1086, N964Q | N1021Q); assay: SPR; RIPR-Tail immobilised, steady state
[3] = target: T2, full-length RIPR (RH5-interacting protein) (P. falciparum, UniProt O97302 20-1086); assay: BLI; 2:1 heterogeneous ligand fit, KD2 (second site)
[4] = target: T1, RIPR-Tail (D717 - N1086); assay: SPR; PTRAMP-CSS immobilised, steady state
[5] = target: T2, full-length RIPR (RH5-interacting …); assay: BLI; 2:1 heterogeneous ligand fit, KD1
[6] = target: RIPR EGF 6+; assay: SPR
[7] = target: RIPR EGF 8+; assay: SPR
[8] = target: RIPR EGF 7+; assay: SPR
[9] = target: mono-biotinylated RIPR-Tail (P. falciparum, UniProt O97302 717-1086, N964Q | N1021Q, biotin on the BAP tag (mono-biotinylated by co-transfected BirA)); assay: SPR

B1: PTRAMP-CSS heterodimer (complex)
chain 1: CNLKVRNNWEHFLQVYQNNGNFKMEILEPECTIQKNLPSEEEKEEFIDFDRKELLLHDFVVIKNSQFTDEKTLELYLSKEENNKSYLMLTFYLGDLKLMIGHNSPYEISLILNVATVNKNMSNCKNNSYNIVLLKTTDVFNTSDLEILEGPIQFSLGKSSGAFRINVTNFFLNNTWKAFTKDKISFLIKPEENCYTILENKINKPQLLIEKKTTFYSEWGEWSNCSMDCDHPDNVQIRERECIHPSGDCFKGDLKESRPCIIPLPPCNELFSHKDNST
chain 2: QDEKSVKNICVCDFTDKLNFLPLEKTKILCELKPQYGEDIKIIANKEYEINCMNNSKVFCPLKDTFINNTNIKLYSPKLHFEIKDITHKGKNAALYYLKIDEEASDIFFSCSIKPKQVSGLLEGEVRVNLKKHINEEYSIFNEEEDVHVCDFSKGNLDITPSAGFYLKNSRNVSCIYRVIPNKLFLIKLPKLDIVTEKLLPSIVNCLSEFSFINFTLKHVQEGDNYISFNVIFGEFKKHFNLTCSLDLSDFQQEPCNLGKTANITFIFSK
- Kd [1]: 6.44 µM
- Kd [2]: 5.69 µM
- Kd [3]: 0.176 µM
- Kd [4]: 6.23 µM
- Kd [5]: 0.00113 µM
- Kd [6]: 5.15 µM
- Kd [7]: 3.55 µM
- Kd [8]: 2.35 µM

B2: CSS (cysteine-rich small secreted protein), residues Q21-K290 (natural protein)
chain: QDEKSVKNICVCDFTDKLNFLPLEKTKILCELKPQYGEDIKIIANKEYEINCMNNSKVFCPLKDTFINNTNIKLYSPKLHFEIKDITHKGKNAALYYLKIDEEASDIFFSCSIKPKQVSGLLEGEVRVNLKKHINEEYSIFNEEEDVHVCDFSKGNLDITPSAGFYLKNSRNVSCIYRVIPNKLFLIKLPKLDIVTEKLLPSIVNCLSEFSFINFTLKHVQEGDNYISFNVIFGEFKKHFNLTCSLDLSDFQQEPCNLGKTANITFIFSK
- Kd [9]: 0.95 µM
